This data set in a line: yeast display, Sf9 membrane polyspecificity reagent, FACS + sequencing; frameworks hold sequencing errors. In outline:
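After 36–48 hours of galactose induction, yeast (Saccharomyces cerevisiae BJ5465) displaying a synthetic nanobody library were stained at 4 °C for 1 hour with 10% biotinylated, detergent-solubilized Sf9 membrane reagent. Streptavidin microbeads enriched the stained cells before FACS sorting into low and high (top ~1%) gates on anti-HA and streptavidin fluorescence. Each clone's polyreactivity label reflects its gate of origin.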
Consider “QVQLVESGGGLVQAGGSLRLISAASGFIFRYNAMGWYRQAPGKESELVATISSGGGNTYYADSVKGRFTISRDNAKNTVYLQMNSLKPEDTAVYYCAARRYYGVYYAFYYWGQGTQVTVSS”, for which the “polyreactivity (PSR sort gate)” value is on record as “high polyreactivity”.

In the case of “QVQLVESGGGLVQAGGSLRLISAASGITFDYYAIGWSRQAPGKERELVAAITNDGRTYYADSVKGRFTISRDNAKNTVYLQMNSLKPEDTAVYYCARLTFREYDYWGQGTQVTVSS”, the “polyreactivity (PSR sort gate)” value is reported as “low polyreactivity”.

For the sequence “QVQLVESGGGLVQAGGSLRLISPASRFTFRYYAMGWYRQAPGKERELVAAISRGGTTNYADSVKGRFTISRDNAKNTVYLQMNSLKPEDTAVYYCATTRYDYWGQGTQVTVSS”, the “polyreactivity (PSR sort gate)” value is listed as “high polyreactivity”.

Regarding “QVQLVESGGGLVQAGGSLRLNCAASGLIFSNNAMGWYRQAHRKERDLVAAITSSGSRTYYADSVKGRFTISRDNAQITVYLQMNSLKPEDTAVYYCAAYEVPYQRRYGYWGQGTQVTVSS”, the “polyreactivity (PSR sort gate)” value is listed as “high polyreactivity”.

In the case of “QVQLVESGGGLVQAGGSLRLNCAASGRIFVGNTMGWDRQAPGKERELVAAITVRGGSTYYADSVKGRFTISRDNAKNTVYLQMNSLKPEDTAVYYCAARRRIFPPRFGYWGQGTQVTVSS”, the “polyreactivity (PSR sort gate)” value is “high polyreactivity”.

On to “QVQLVESGGGLVQAGGSLRLRCAASGFTFRYYALAWYRPAPGKERELVAAISGSGGSTYYADSVKGRFTISRDNAKNTVYLQMNSLKPEDTAVYYCNALSARSRLQSDYWGQGTQVTVSS”, for which the “polyreactivity (PSR sort gate)” value was “high polyreactivity”.

Regarding “QVQLVESGGGLVQAGGSLRLRCAASGFTFTAYAMGWYRQAPGKERELVAAITWRDGITYYADSVKGRFTISRDNAKNTVYLQMNSLKPEDTADYYCAASWSTEYYWGQGTQVTVSS”, the “polyreactivity (PSR sort gate)” value was “high polyreactivity”.

Turning to “QVQLVESGGGLVQAGGSLRLRCAASGFTIGYNVMGLYRQAPGKERELVATISWNGARTYYADSVKGRFTISRDNAKNTVYLQMNSLKPEDTAVYYCAARRYYRGEYDYWGQGTQVTVSS”, the “polyreactivity (PSR sort gate)” value is given as “low polyreactivity”.

For “QVQLVESGGGLVQAGGSLRLRCAASGFTLLWNSMGWYRQAPGKEREFVAVISSGGSTNYADSVKGRFTISRDNAKNTVYLQMNSLKPEDTAVYYCATRRPSSSSAAAWFYYWGQGTQVTVSS”, the “polyreactivity (PSR sort gate)” value was “low polyreactivity”.

In the case of “QVQLVESGGGLVQAGGSLRLRCAASGGTFNVYAMGWYRQAPGKERELVARITWNGGRTSYADSVKGRFTISRDNAKNTVYLQMNSLKPEDTAVYFCAAETRYKRIYPYGRATEDYWGQGTQVTVSS”, the “polyreactivity (PSR sort gate)” value is on record as “high polyreactivity”.

Regarding “QVQLVESGGGLVQAGGSLRLRCAASGIIFSYYAMGLSRQAPGKERELFAAISSSGSTNYADSVKGRFTISRDNAKNTVYLQMNSLKPEDTAVYYCNAGYGRRVYVYSFKLRYNYWGQGTQVTVSS”, the “polyreactivity (PSR sort gate)” value is “high polyreactivity”.

On to “QVQLVESGGGLVQAGGSLRLRCAASGITFRNYAMGWYRQAPGKEMEFVATISRRAGSTYYADSVKGRFTISRDNAKNTVYLQMNRLKPEDTAVYYCAVRPSYVYFLGARYDYWGQGTQVTVSS”, for which the “polyreactivity (PSR sort gate)” value is listed as “high polyreactivity”.

Consider “QVQLVESGGGLVQAGGSLRLRCAASGITFSRNAMGAYRQAPGKERELVATITSGGSTNYADSVKGRFTISRDNAKNTVYLQMNSLKPEDTAVYYCNADWNTFISGRSYDYWGQGTQVTVSS”, for which the “polyreactivity (PSR sort gate)” value is “low polyreactivity”.

With “QVQLVESGGGLVQAGGSLRLRCAASGLTFTGNAMGWYRQAPGKEREFVAAIRWSAGSTYYADSVKARFTISRDNAKNTVYLHMNSLKPEDTAVYYCKAALNVSGHYTNDSWGQGTQVTLSS”, the “polyreactivity (PSR sort gate)” value is given as “low polyreactivity”.

As for “QVQLVESGGGLVQAGGSLRLRCAASGLTFVDNAMGWYSQAPGKERELVAAITKRGGRTYYADSVKGRFTISRDNAKNTVYLQMNSLKPEDPAVYYCARDSGNDSSRRLDYWGQGTQVTVSS”, the “polyreactivity (PSR sort gate)” value was “low polyreactivity”.

Turning to “QVQLVESGGGLVQAGGSLRLRCAASGNIFYGNAMGWYRQAPGKERELVAGITSGGSTNYADSVKGRFTISRDNAKNTVYLQMNSLKPEDTAVYYCNATSSGSIFGYDYWGQGTQVTVSS”, the “polyreactivity (PSR sort gate)” value is reported as “low polyreactivity”.

In the case of “QVQLVESGGGLVQAGGSLRLRCAASGRIFGFYAMGWYRQAPGKERELVAAITSSAGRTRYADSVKGRFTISRDNAKNTVYLQMNSLKPEDTAVYYCAARTVGRKAGFDYWGQGTQVTVSS”, the “polyreactivity (PSR sort gate)” value was “high polyreactivity”.

With “QVQLVESGGGLVQAGGSLRLRCAASGRIFRLYAMGWYRQAPGKERELVAAIRSSGGSTYADSVKGRFTISRDNAKNTVYLHMNSLKPEDTAVYYCAARWGRLPEQYRYDYWGQGTQVTVSS”, the “polyreactivity (PSR sort gate)” value is recorded as “high polyreactivity”.

“QVQLVESGGGLVQAGGSLRLRCAASGRIFRYYAMGWYRQAPGKESELVAAITSSGGSTFYADSVKARFTISRDNAKNTVYLQMNSLKPEDTAVYYCAAPRGTRKTYNSWGQGTQVTVSS”: the “polyreactivity (PSR sort gate)” value is on record as “high polyreactivity”.

Consider “QVQLVESGGGLVQAGGSLRLRCAASGRIFVPYVMGWYRQAPGKERELVASISDSDTSTYYADSVKGRFTISRDNAKNTVYLQMNSLKPEDTAVYYCNVDYWGQGTQVTVSS”, for which the “polyreactivity (PSR sort gate)” value is “low polyreactivity”.

For “QVQLVESGGGLVQAGGSLRLRCAASGRIYCDNATGRYRQAPGKESELVAPISDSVVITYYADSVKGRFTISRDNAKNTLYVQMNSLKPEDTAVYYCAADKRGTVYLSSFWMDYWGQGTQVTVSS”, the “polyreactivity (PSR sort gate)” value is “low polyreactivity”.

For the sequence “QVQLVESGGGLVQAGGSLRLRCAASGRTFDTYAMGWYRQAPWKERELVASITYRGGSTYYADSVKGRFTITRDNAKNTVYLQMNSLKPEDTAVYYCNAKVKRNKRWRGYWGQGTQVTVSS”, the “polyreactivity (PSR sort gate)” value was “high polyreactivity”.

“QVQLVESGGGLVQAGGSLRLRCAASGRTFGGNAMGWYRQAPGKERELVAAISFSGGSTYYADSVKGRFTISRDNAKNTVYLQMNSLKPEDTAVYYCAARYYWSVYADQGDYWGQGTQVTVSS”: the “polyreactivity (PSR sort gate)” value is listed as “low polyreactivity”.

On to “QVQLVESGGGLVQAGGSLRLRCAASGRTFYGYDMGWYRQAPGKERELVATISSGGSTNYADSVKGRFTFSRDNAKNTVYLQMNSLKPEDTAVYYCNADRYVDPRTYFGYDYCGQGTQVTVSS”, for which the “polyreactivity (PSR sort gate)” value is recorded as “low polyreactivity”.

On to “QVQLVESGGGLVQAGGSLRLRCAASGSIFESNAMGWYRQAPGKETEFVAAIDQNDGSTYYADSVKGRFTISRDNAKNTVYLQMNSLKPDDTAVYYCAARCYVYRLTWGDYWGQGTQVTVSS”, for which the “polyreactivity (PSR sort gate)” value is listed as “low polyreactivity”.

On to “QVQLVESGGGLVQAGGSLRLRCAASGSIFIGYAMGWYRQAPGKERELVAAITSGSITNYAYSVKGRFTISRDNAKNTVYLLMNSLKPEDTAVYYCNADVNFIDDDYWGQGTQVTVSS”, for which the “polyreactivity (PSR sort gate)” value is “low polyreactivity”.

Take “QVQLVESGGGLVQAGGSLRLRCAASGSIFNSYAMGWYRPAPGKERELVAAISIRGTRTYYADSVKGRFTISRDNAKNTVSLQMNSLKPEDSAVSYCAADASSTEGMDFWGQGTQLTVSS”: the “polyreactivity (PSR sort gate)” value is on record as “high polyreactivity”.

As to “QVQLVESGGGLVQAGGSLRLRCAASGSIFVSNTMGWYRQAPGKEREMVASIRETAGSTNYADSVKGRFTISRDYAKNTVYLQMNSLKPEDTEVYYCAARYSPTRYHYGYWGQGTQVTVSS”, the “polyreactivity (PSR sort gate)” value is reported as “low polyreactivity”.

With “QVQLVESGGGLVQAGGSLRLRCAASGSSFIWNAMGWYRQAPGKERELVAAISSGGSTYYADSVKGRFTISRDNAKNTVDLQMNSQKPPDTAVYYCAAEYVNNVWEQSYAVYSTDDYWGQGTQVTVSS”, the “polyreactivity (PSR sort gate)” value is on record as “low polyreactivity”.

With “QVQLVESGGGLVQAGGSLRLRCAASGSTFAVYAMGWYRQAPGKERELVATIRWNGGSTYYADSVKGRFTISRDNAKNTVYLQMNSLKPEDTAVYYCAAPPIRPNLYDYWGQGTQVTVSS”, the “polyreactivity (PSR sort gate)” value is “high polyreactivity”.

These data come from the nanobody polyreactivity screen of Harvey et al. (2022).
